According to ChEMBL document CHEMBL1139472, “Synthesis of N-{4-[(2,4-diamino-5-methyl-4,7-dihydro-3H-pyrrolo[2,3-d]pyrimidin-6-yl)thio]benzoyl}-L-glutamic acid and N-{4-[(2-amino-4-oxo-5-methyl-4,7-dihydro-3H-pyrrolo[2,3-d]pyrimidin-6-yl)thio]benzoyl}-L-glutamic acid as dual inhibitors of dihydrofolate reductase and thymidylate synthase and …” (J Med Chem, 2005):

Experiments:
[1] = substrate: Cc1c(Sc2ccc(C(=O)N[C@@H](CCC(=O)O)C(=O)O)cc2)[nH]c2nc(N)[nH]c(=O)c12; assay: Activity of human recombinant cytosolic FPGS
[2] = substrate: Cc1c(Sc2ccc(C(=O)N[C@@H](CCC(=O)O)C(=O)O)cc2)[nH]c2nc(N)[nH]c(=O)c12; assay: (§1) Activity of human recombinant cytosolic FPGS relative to aminopterin
[3] = substrate: Nc1nc(N)c2nc(CNc3ccc(C(=O)N[C@@H](CCC(=O)O)C(=O)O)cc3)cnc2n1; assay: as §1

B1: Folylpolyglutamate synthase, mitochondrial (Homo sapiens), Q05932 (protein)
chain: MSRARSHLRAALFLAAASARGITTQVAARRGLSAWPVPQEPSMEYQDAVRMLNTLQTNAGYLEQVKRQRGDPQTQLEAMELYLARSGLQVEDLDRLNIIHVTGTKGKGSTCAFTECILRSYGLKTGFFSSPHLVQVRERIRINGQPISPELFTKYFWRLYHRLEETKDGSCVSMPPYFRFLTLMAFHVFLQEKVDLAVVEVGIGGAYDCTNIIRKPVVCGVSSLGIDHTSLLGDTVEKIAWQKGGIFKQGVPAFTVLQPEGPLAVLRDRAQQISCPLYLCPMLEALEEGGPPLTLGLEGEHQRSNAALALQLAHCWLQRQDRHGAGEPKASRPGLLWQLPLAPVFQPTSHMRLGLRNTEWPGRTQVLRRGPLTWYLDGAHTASSAQACVRWFRQALQGRERPSGGPEVRVLLFNATGDRDPAALLKLLQPCQFDYAVFCPNLTEVSSTGNADQQNFTVTLDQVLLRCLEHQQHWNHLDEEQASPDLWSAPSPEPGGSASLLLAPHPPHTCSASSLVFSCISHALQWISQGRDPIFQPPSPPKGLLTHPVAHSGASILREAAAIHVLVTGSLHLVGGVLKLLEPALSQ
- Km [1]: 5.1 µM
- Vmax [2]: 0.29
- Vmax [3]: 1
